The values below come from publication PMC12994607, “Screening pertactin-specific antibodies and evaluating competitive epitope recognition by native mass spectrometry” (Chemical Science, 2026).

Where only a bound is given, the exact number is not on record here.

In general, stoichiometry N refers to a count of units in the complex or per binding partner. Broadly, the Kd is the concentration at which binding is half-saturated.

B1: 1F2 monoclonal antibody (antibody, V domains shown)
VH: EVQLVESGGGLVKPGESLKLSCAASGFTFNSYTMSWVRQTPEKRLEWVATISSGGSYTYYPDSVKGRFTISRDNAKNTLYLQMSSLKSEDTAMYYCIRVGGLFDYWGQGTTLTVSR
VL: IQMIQSHKFMSTSVGDRVSITCKASQDVSTAVAWYQQKPGQSPKLLIYWASTRHTGVPDRFTGSGSGTDFTLTISGVQAEDLALYYCQQHYTTPWTFGGGTKLEIK
notes: variable region of 1F2; mouse IgG2a heavy chain constant domains; mouse light chain constant domain; Full-length mouse IgG2a; also called 1F2 antibody; source: ExpiCHO-S, transfected, purified (Protein A); copies: 2 + 2
B2: 2E9 monoclonal antibody (antibody, V domains shown)
VH: QVQLQQSGPELVKPGASVKMSCKASGYTFTSNYIHWMKQRPGQGLEWIGWIYPGDGSSKYNEKFKGKTTLTADRSSSTAYMLLSSLTSEDSAIYFCANYFYAMDQWGQGTSVTVSR
VL: IVLTQSHKFMSTSVGDRVSITCKASQDVSTAVAWYQQKPGQSPKLLIYWASTRHTGVPDRFTGSGSGTDYTLTISSVQAEDLALYYCQQHYSTPWTFGGGTKLEIK
notes: variable region of 2E9; mouse IgG2a heavy chain constant domains; mouse light chain constant domain; Full-length mouse IgG2a; also called 2E9 mAb; source: ExpiCHO-S, transfected, purified (Protein A); copies: 2 + 2
B3: 2B1 monoclonal antibody (antibody, V domains shown)
VH: QVQLQQSGPELVKPGASVKISCKASGYSFTDYNMYWVKQSHGKSLEWIGYFDPYNGGIYYNQNFKGRATLTVDKSSSTAFMHLNSLTSEDSAVYYCARGGGWFRGFTYWGQGTLVTVSR
VL: IQMTQSTSSLSASLGDRVTISCRASQDISNYLNWYQQKPDGTLNLLIYYTSRLHSGVPSRFSGSGSGTDYSLTISNLEQEDIATYFCQQGNTLPYTFGGGTKLEIK
notes: variable region of 2B1; mouse IgG2a heavy chain constant domains; mouse light chain constant domain; Full-length mouse IgG2a; source: ExpiCHO-S, transfected, purified (Protein A); copies: 2 + 2
B4: 1E7 monoclonal antibody (antibody, V domains shown)
VH: QVQLQQPAAELARPGASVKMSCRASGYTFTTYTMHWVKQRPGQGLEWIGYINPSSGYTDYNQKFRDKITLTADKSSSTAYMQLSSLTSGDSAVYYCAREDYYGQGFTYWGQGTLVTVSR
VL: IVMTQSTSSLSASLGDRVTISCRASQDISNYLNWYQQKPDGTVKLLIYYTSRLHSGVPSRFSGSGSGTDYSLTISNLEQEDIATYFCQQGNMFPWTFGGGTKLELK
notes: variable region of 1E7; mouse IgG2a heavy chain constant domains; mouse light chain constant domain; Full-length mouse IgG2a; source: ExpiCHO-S, transfected, purified (Protein A); copies: 2 + 2
B5: PeM-19 monoclonal antibody (R2-specific) (antibody, V domains shown)
VH: EVQLQQSGPELVKPGASVKIPCKASGYTFTDYNMDWVKQSHGKSLEWIGDINPNTGETIYNQKFEGKASLTVDKSSNTVYMELRSLTSEDTAVYYCARVPFYFDYWGQGTTLTVSR
VL: DIVMSQSPSSLTVSVGEKVTMSCKSSQSLLYSRDQKNYLAWYQQKPGQSPKMLIHWASTRASGVPDRFTGSGSGTDFTLTISSVKAEDLAVYYCQQYYFYPRTFGGGTKLELK
notes: variable region of PeM-19; mouse IgG2a heavy chain constant domains; mouse light chain constant domain; the methods describe the IgG2a format for the anti-pertactin antibodies in general; also called PeM-19 Ab; source: ExpiCHO-S, transfected, purified (Protein A); copies: 2 + 2
B6: 2E9 monoclonal antibody (antibody, V domains shown)
VH: QVQLQQSGPELVKPGASVKMSCKASGYTFTSNYIHWMKQRPGQGLEWIGWIYPGDGSSKYNEKFKGKTTLTADRSSSTAYMLLSSLTSEDSAIYFCANYFYAMDQWGQGTSVTVSR
VL: IVLTQSHKFMSTSVGDRVSITCKASQDVSTAVAWYQQKPGQSPKLLIYWASTRHTGVPDRFTGSGSGTDYTLTISSVQAEDLALYYCQQHYSTPWTFGGGTKLEIK
notes: 2E9 HC, whole heavy chain as printed: variable region with mouse IgG2a constant domains; 2E9 LC, whole light chain as printed; full-length mouse IgG2a; measured mass 147,603 Da; also called 2E9 mAb; 2E9 Ab; source: ExpiCHO-S, transfected, purified (HiTrap Protein A); copies: 2 + 2
B7: 1F2 monoclonal antibody (antibody, V domains shown)
VH: EVQLVESGGGLVKPGESLKLSCAASGFTFNSYTMSWVRQTPEKRLEWVATISSGGSYTYYPDSVKGRFTISRDNAKNTLYLQMSSLKSEDTAMYYCIRVGGLFDYWGQGTTLTVSR
VL: IQMIQSHKFMSTSVGDRVSITCKASQDVSTAVAWYQQKPGQSPKLLIYWASTRHTGVPDRFTGSGSGTDFTLTISGVQAEDLALYYCQQHYTTPWTFGGGTKLEIK
notes: 1F2 HC, whole heavy chain as printed: variable region with mouse IgG2a constant domains; 1F2 LC, whole light chain as printed; full-length mouse IgG2a; measured mass 148,317 Da; also called 1F2 mAb; 1F2 Ab; source: ExpiCHO-S, transfected, purified (HiTrap Protein A); copies: 2 + 2
B8: 2B1 monoclonal antibody (antibody, V domains shown)
VH: QVQLQQSGPELVKPGASVKISCKASGYSFTDYNMYWVKQSHGKSLEWIGYFDPYNGGIYYNQNFKGRATLTVDKSSSTAFMHLNSLTSEDSAVYYCARGGGWFRGFTYWGQGTLVTVSR
VL: IQMTQSTSSLSASLGDRVTISCRASQDISNYLNWYQQKPDGTLNLLIYYTSRLHSGVPSRFSGSGSGTDYSLTISNLEQEDIATYFCQQGNTLPYTFGGGTKLEIK
notes: 2B1 HC, whole heavy chain as printed: variable region with mouse IgG2a constant domains; 2B1 LC, whole light chain as printed; full-length mouse IgG2a; measured mass 149,064 Da; also called 2B1 mAb; 2B1 Ab; source: ExpiCHO-S, transfected, purified (HiTrap Protein A); copies: 2 + 2
B9: 1E7 monoclonal antibody (antibody, V domains shown)
VH: QVQLQQPAAELARPGASVKMSCRASGYTFTTYTMHWVKQRPGQGLEWIGYINPSSGYTDYNQKFRDKITLTADKSSSTAYMQLSSLTSGDSAVYYCAREDYYGQGFTYWGQGTLVTVSR
VL: IVMTQSTSSLSASLGDRVTISCRASQDISNYLNWYQQKPDGTVKLLIYYTSRLHSGVPSRFSGSGSGTDYSLTISNLEQEDIATYFCQQGNMFPWTFGGGTKLELK
notes: 1E7 HC, whole heavy chain as printed: variable region with mouse IgG2a constant domains; a predicted N-linked glycosylation site (NPS) in CDR2 is highlighted; 1E7 LC, whole light chain as printed; full-length mouse IgG2a; measured mass 149,106 Da; also called 1E7 mAb; 1E7 Ab; source: ExpiCHO-S, transfected, purified (HiTrap Protein A); copies: 2 + 2

One experiment concerns the target T1, mature pertactin (Prn), wild type (Bordetella pertussis, strain  …).
T1 construct: Pertactin (Prn) of Bordetella pertussis, mature N-terminal passenger domain (63 kDa), cut from the precursor; Kept in 0.06% C10E5 detergent for native MS; also called Prn antigen; wild-type Prn
T1 chain: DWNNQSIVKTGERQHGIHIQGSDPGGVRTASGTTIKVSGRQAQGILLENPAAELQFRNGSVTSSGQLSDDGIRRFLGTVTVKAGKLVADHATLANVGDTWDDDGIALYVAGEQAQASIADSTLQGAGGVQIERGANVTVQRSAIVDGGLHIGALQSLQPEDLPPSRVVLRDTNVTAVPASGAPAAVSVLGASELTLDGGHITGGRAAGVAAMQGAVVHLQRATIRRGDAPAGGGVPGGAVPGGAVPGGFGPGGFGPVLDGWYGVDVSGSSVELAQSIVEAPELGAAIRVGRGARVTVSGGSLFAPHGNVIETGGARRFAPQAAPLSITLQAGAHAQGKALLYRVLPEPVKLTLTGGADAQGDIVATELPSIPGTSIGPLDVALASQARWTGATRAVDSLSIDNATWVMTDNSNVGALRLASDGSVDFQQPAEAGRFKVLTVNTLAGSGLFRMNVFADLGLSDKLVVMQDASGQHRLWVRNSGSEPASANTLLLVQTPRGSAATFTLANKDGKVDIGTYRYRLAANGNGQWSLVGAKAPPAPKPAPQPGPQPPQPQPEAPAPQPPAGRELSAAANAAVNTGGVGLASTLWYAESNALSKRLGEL
In words: native MS; titration: fixed 2 µM mAb, Prn 0.5 µM to 8 µM, 250 mM ammonium acetate with 0.06% C10E5. Conditions: both partners purified.
As to B1, the “stoichiometry N” value was 2 Prn per mAb.
Turning to B2, the “stoichiometry N” value turned out to be 2 Prn per mAb.
The same measure, in the same setting: in the case of B3 it was 2 Prn per mAb.
In the case of B4, the “stoichiometry N” value was found to be 2 Prn per mAb.

The next experiment addresses T2, ΔC-term Prn variant (Bordetella pertussis, strain  …, point mutant).
T2 construct: Pertactin (Prn) of Bordetella pertussis, mature passenger domain from which 64 residues at the C-terminus (with the R2 repeat region; unstructured in the X-ray structure) were truncated; also called ΔC-terminal
T2 chain: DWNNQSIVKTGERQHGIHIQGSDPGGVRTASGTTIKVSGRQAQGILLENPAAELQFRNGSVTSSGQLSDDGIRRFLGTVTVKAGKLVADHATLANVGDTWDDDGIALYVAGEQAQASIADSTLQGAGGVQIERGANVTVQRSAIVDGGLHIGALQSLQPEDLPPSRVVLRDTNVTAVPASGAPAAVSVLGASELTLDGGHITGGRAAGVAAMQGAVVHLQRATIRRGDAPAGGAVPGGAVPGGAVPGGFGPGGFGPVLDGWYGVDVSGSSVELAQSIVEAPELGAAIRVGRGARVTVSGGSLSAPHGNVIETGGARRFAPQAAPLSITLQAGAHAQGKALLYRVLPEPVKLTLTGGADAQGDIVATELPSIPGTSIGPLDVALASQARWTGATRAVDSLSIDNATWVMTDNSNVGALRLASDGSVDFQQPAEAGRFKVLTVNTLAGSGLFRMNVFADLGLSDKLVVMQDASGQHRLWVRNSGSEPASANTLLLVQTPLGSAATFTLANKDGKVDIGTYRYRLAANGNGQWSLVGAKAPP
Nature of the experiment: native MS; 2 µM mAb and 2 µM Prn or Prn variant (equimolar), 250 mM ammonium acetate with 0.06% C10E5, 1 hour at room temperature, nano-ESI on Q Exactive UHMR. The note with it: both partners purified.
With B5, the binding result is recorded as “no binding (tested: 2 µM each)”.

In another experiment the target is T3, Mature Pertactin (Prn) (Bordetella pertussis, strain  …).
T3 construct: pertactin (Prn) of Bordetella pertussis, mature passenger domain; the legend on D1:p9 names 1DAB instead; also called wild-type Prn; wild type Prn
T3 chain: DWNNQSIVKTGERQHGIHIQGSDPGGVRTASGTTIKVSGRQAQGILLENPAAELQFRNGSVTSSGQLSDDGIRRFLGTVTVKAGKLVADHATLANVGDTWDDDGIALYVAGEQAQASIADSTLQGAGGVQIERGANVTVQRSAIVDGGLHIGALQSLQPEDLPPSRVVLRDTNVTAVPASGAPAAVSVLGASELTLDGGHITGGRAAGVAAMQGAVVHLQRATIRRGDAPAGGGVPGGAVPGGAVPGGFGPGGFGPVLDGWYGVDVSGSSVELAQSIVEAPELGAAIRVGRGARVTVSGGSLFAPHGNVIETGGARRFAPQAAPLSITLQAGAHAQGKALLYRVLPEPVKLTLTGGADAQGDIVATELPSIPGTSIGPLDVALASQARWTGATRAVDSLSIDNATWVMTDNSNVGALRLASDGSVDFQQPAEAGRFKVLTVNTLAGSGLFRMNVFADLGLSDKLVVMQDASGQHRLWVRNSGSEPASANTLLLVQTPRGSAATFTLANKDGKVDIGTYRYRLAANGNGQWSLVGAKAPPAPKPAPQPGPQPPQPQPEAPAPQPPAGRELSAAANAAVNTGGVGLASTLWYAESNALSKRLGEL
Nature of the experiment: BLI; mAb (10 nM) loaded on anti-mouse IgG Fc (AMC) biosensors, dipped into Prn at 50, 25, 12.5, 6.25, 3.125 and 1.56 nM; kinetic buffer (HEPES buffer with 0.01% BSA and 0.002% Tween-20); Octet Red96; 1:1 binding model, global fit, single replicate. Conditions: both partners purified.
B6 yielded a Kd of under 1 nM.
B7 came in with a Kd of under 1 nM.
Consider B8, for which the Kd was under 1 nM.
As to B9, the Kd was under 1 nM.
